# Starred links: 1 amine or outer side, 2 acyl side, 3 side chain; linkers in the order of their positions; H or OH if unused. Non-standard residues stand in square brackets, D forms with d. Groups on a side chain read outwards from the residue. *: point of attachment. TTDS = 4-[3-[2-[2-(3-aminopropoxy)ethoxy]ethoxy]propylamino]-4-oxo-butanoyl; γGlu = O=C(O)[C@H](CCC(=O)[*:2])N[*:1]; Stearoyl = CCCCCCCCCCCCCCCCCC(=O)*; Palmitoyl = CCCCCCCCCCCCCCCC(=O)*; Cit = NC(=O)NCCC[C@H](N)C(=O)O; αMeK = C[C@](N)(CCCCN)C(=O)O; hLys = NCCCCC[C@H](N)C(=O)O; AEEA = NCCOCCOCC(=O)O; Aib = CC(C)(N)C(=O)O
# T1: RXFP1 receptor (endogenous, on OVCAR5 cells) (UniProt Q9HBX9 1-757, limits assumed)
# T1 sequence (looked up): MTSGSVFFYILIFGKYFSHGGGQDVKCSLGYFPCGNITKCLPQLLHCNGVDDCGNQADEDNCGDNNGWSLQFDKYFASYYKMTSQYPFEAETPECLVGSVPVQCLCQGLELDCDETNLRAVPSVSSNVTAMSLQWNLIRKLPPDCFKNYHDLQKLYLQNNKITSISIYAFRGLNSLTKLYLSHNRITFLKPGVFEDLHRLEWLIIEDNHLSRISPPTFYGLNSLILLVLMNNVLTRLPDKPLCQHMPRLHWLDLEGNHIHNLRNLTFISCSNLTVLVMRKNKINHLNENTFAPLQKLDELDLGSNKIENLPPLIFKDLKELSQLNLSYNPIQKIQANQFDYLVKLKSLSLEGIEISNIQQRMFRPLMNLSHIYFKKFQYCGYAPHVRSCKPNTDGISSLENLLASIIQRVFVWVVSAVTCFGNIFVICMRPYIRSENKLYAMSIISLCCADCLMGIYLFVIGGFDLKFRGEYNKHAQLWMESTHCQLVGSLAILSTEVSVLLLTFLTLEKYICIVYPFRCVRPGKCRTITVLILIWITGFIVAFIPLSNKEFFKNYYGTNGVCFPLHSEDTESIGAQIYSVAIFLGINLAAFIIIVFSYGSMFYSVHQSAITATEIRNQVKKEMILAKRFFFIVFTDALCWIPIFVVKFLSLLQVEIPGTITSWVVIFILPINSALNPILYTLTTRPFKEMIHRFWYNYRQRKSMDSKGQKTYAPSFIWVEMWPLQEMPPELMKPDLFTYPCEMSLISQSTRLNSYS
# Columns and labels:
# [1] = molecular target: T1, RXFP1 receptor (endogenous, on OVCAR5 …); assay: cell-based or functional assay
# [2] = molecular target: T1, RXFP1 receptor (endogenous, on OVCAR5 …); assay: cell-based or functional assay; remark: listed apart in the source
Binder,"EC50 (nM), OVCAR 5 cells (cAMP) [1]","EMax, OVCAR 5 cells (cAMP) [1]","EC50 (nM), cAMP assay in OVCAR 5 cells [2]","Emax, cAMP assay in OVCAR 5 cells [2]"
Ac-LEGREKVRAK(Ac)I[Aib][Aib]EGK([AEEA-AEEA-AEEA-AEEA-γGlu-γGlu-γGlu-Palmitoyl])STWS[αMeK]RAK(Ac)-NH2 (SMILES CCCCCCCCCCCCCCCC(=O)N[C@@H](CCC(=O)N[C@@H](CCC(=O)N[C@@H](CCC(=O)NCCOCCOCC(=O)NCCOCCOCC(=O)NCCOCCOCC(=O)NCCOCCOCC(=O)NCCCC[C@H](NC(=O)CNC(=O)[C@H](CCC(=O)O)NC(=O)C(C)(C)NC(=O)C(C)(C)NC(=O)[C@@H](NC(=O)[C@H](CCCCNC(C)=O)NC(=O)[C@H](C)NC(=O)[C@H](CCCNC(=N)N)NC(=O)[C@@H](NC(=O)[C@H](CCCCN)NC(=O)[C@H](CCC(=O)O)NC(=O)[C@H](CCCNC(=N)N)NC(=O)CNC(=O)[C@H](CCC(=O)O)NC(=O)[C@H](CC(C)C)NC(C)=O)C(C)C)[C@@H](C)CC)C(=O)N[C@@H](CO)C(=O)N[C@H](C(=O)N[C@@H](Cc1c[nH]c2ccccc12)C(=O)N[C@@H](CO)C(=O)N[C@@](C)(CCCCN)C(=O)N[C@@H](CCCNC(=N)N)C(=O)N[C@@H](C)C(=O)N[C@@H](CCCCNC(C)=O)C(N)=O)[C@@H](C)O)C(=O)O)C(=O)O)C(=O)O) [peptide of SEQ ID NO: 42],1.5 nM,84%,,
Ac-LEGREKVRAK(Ac)I[Aib][Aib]EGK([TTDS-TTDS-γGlu-γGlu-γGlu-Stearoyl])STFS[αMeK]RAK(Ac)-NH2 [peptide of SEQ ID NO: 34],0.14 nM,90%,,
Ac-LEGREKVRAQI[Aib][Aib]EGK([TTDS-TTDS-TTDS-γGlu-γGlu-γGlu-Palmitoyl])STFS[αMeK]RAK(Ac)-NH2 [peptide of SEQ ID NO: 48],0.45 nM,96%,,
Ac-LEGREKVRAKI[Aib][Aib]EGK([TTDS-TTDS-TTDS-γGlu-γGlu-γGlu-Palmitoyl])STFS[αMeK]RAK(Ac)-NH2 [peptide of SEQ ID NO: 47],0.64 nM,95%,,
Ac-LEGREFVRAK(Ac)I[Aib][Aib]EGK([TTDS-TTDS-TTDS-γGlu-γGlu-γGlu-Palmitoyl])STWS[Aib]RRK(Ac)-NH2 [peptide of SEQ ID NO: 39],8.7 nM,93%,,
Ac-LEGREKVRAK(Ac)I[Aib][Aib]EGK([TTDS-TTDS-TTDS-γGlu-γGlu-γGlu-Palmitoyl])STFS[Dlys]RAK(Ac)-NH2 [peptide of SEQ ID NO: 36],3.6 nM,93%,,
Ac-LEGREKVRAK(Ac)I[Aib][Aib]EGK([TTDS-TTDS-TTDS-γGlu-γGlu-γGlu-Palmitoyl])STFS[αMeK]RAK-NH2 [peptide of SEQ ID NO: 49],0.19 nM,97%,,
Ac-LEGREKVRAK(Ac)I[Aib][Aib]EGK([TTDS-TTDS-TTDS-γGlu-γGlu-γGlu-Palmitoyl])STW[Dser]KRAK(Ac)-NH2 [peptide of SEQ ID NO: 44],2.2 nM,97%,,
Ac-LEGRERVRAK(Ac)I[Aib][Aib]EGK([TTDS-TTDS-TTDS-γGlu-γGlu-γGlu-Palmitoyl])STWS[Aib]RRK(Ac)-NH2 [peptide of SEQ ID NO: 55],0.18 nM,,,
H-VIKLSGRELVRAQIAISGMSTWSKRSL-NH2 [B7-33 C11.23S],,,1640 nM,90%
Ac-LEGREKVRAK(Ac)I[Aib][Aib]EGK([AEEA-AEEA-AEEA-AEEA-AEEA-γGlu-γGlu-γGlu-Palmitoyl])STFS[αMeK]RAK(Ac)-NH2 (SMILES CCCCCCCCCCCCCCCC(=O)N[C@@H](CCC(=O)N[C@@H](CCC(=O)N[C@@H](CCC(=O)NCCOCCOCC(=O)NCCOCCOCC(=O)NCCOCCOCC(=O)NCCOCCOCC(=O)NCCOCCOCC(=O)NCCCC[C@H](NC(=O)CNC(=O)[C@H](CCC(=O)O)NC(=O)C(C)(C)NC(=O)C(C)(C)NC(=O)[C@@H](NC(=O)[C@H](CCCCNC(C)=O)NC(=O)[C@H](C)NC(=O)[C@H](CCCNC(=N)N)NC(=O)[C@@H](NC(=O)[C@H](CCCCN)NC(=O)[C@H](CCC(=O)O)NC(=O)[C@H](CCCNC(=N)N)NC(=O)CNC(=O)[C@H](CCC(=O)O)NC(=O)[C@H](CC(C)C)NC(C)=O)C(C)C)[C@@H](C)CC)C(=O)N[C@@H](CO)C(=O)N[C@H](C(=O)N[C@@H](Cc1ccccc1)C(=O)N[C@@H](CO)C(=O)N[C@@](C)(CCCCN)C(=O)N[C@@H](CCCNC(=N)N)C(=O)N[C@@H](C)C(=O)N[C@@H](CCCCNC(C)=O)C(N)=O)[C@@H](C)O)C(=O)O)C(=O)O)C(=O)O) [peptide of SEQ ID NO: 45],0.45 nM,96%,,
Ac-LEGREKVRAK(Ac)I[Aib][Aib]EGK([TTDS-TTDS-γGlu-γGlu-γGlu-Palmitoyl])STWS[Aib]RKK(Ac)-NH2 [peptide of SEQ ID NO: 4],1.5 nM,89%,,
Ac-LEGRELVRAK(Ac)I[Aib][Aib]EGK([TTDS-TTDS-TTDS-γGlu-γGlu-γGlu-Palmitoyl])STWS[Aib]RRK(Ac)-NH2 [peptide of SEQ ID NO: 37],5.6 nM,98%,,
Ac-LEGREKVRA[Cit]I[Aib][Aib]EGK([TTDS-TTDS-TTDS-γGlu-γGlu-γGlu-Stearoyl])STFS[αMeK]RAK(Ac)-NH2 [peptide of SEQ ID NO: 56],0.15 nM,91%,,
Ac-LEGREKVRAK(Ac)I[Aib][Aib]EGK([TTDS-TTDS-γGlu-γGlu-γGlu-γGlu-Stearoyl])STWS[Aib]RKK(Ac)-NH2 [peptide of SEQ ID NO: 54],0.16 nM,96%,,
Ac-VIKLSGRELVRAQIAISGMSTWSKRSL-NH2 [AcB7-33 C11.23S],,,929 nM,70%
Ac-LEGREKVRAK(Ac)I[Aib][Aib]EGK([TTDS-TTDS-TTDS-γGlu-γGlu-γGlu-Palmitoyl])STW[Aib]KRAK(Ac)-NH2 [peptide of SEQ ID NO: 35],2.33 nM,91%,,
Ac-VIKLSGRELVRAQIAISGMSTWSKKKK-NH2 [KKKK(AcB7-29 C11.23S)],,,206 nM,84%
Ac-LEGREKVRAK(Ac)I[Aib][Aib]EGK([TTDS-TTDS-TTDS-γGlu-γGlu-γGlu-γGlu-Stearoyl])STWS[Aib]RKK(Ac)-NH2 [peptide of SEQ ID NO: 51],0.1 nM,98%,,
Ac-LEGREKVRAK(Ac)I[Aib][Aib]EGK([TTDS-TTDS-TTDS-γGlu-γGlu-γGlu-Palmitoyl])STWS[hLys]RAK(Ac)-NH2 [peptide of SEQ ID NO: 57],0.44 nM,98%,,

# Source: US20190233494A1 (Sanofi, published 2019)
